Assay results: paper PMC2838725 (Biochemistry, 2010)
No end group written: not given here.

T1: C-terminal domain of Stt3p (residues 466-718), N-terminal His6-tagged (Saccharomyces cerevisiae, UniProt P39007 466-718)
T1 sequence (looked up): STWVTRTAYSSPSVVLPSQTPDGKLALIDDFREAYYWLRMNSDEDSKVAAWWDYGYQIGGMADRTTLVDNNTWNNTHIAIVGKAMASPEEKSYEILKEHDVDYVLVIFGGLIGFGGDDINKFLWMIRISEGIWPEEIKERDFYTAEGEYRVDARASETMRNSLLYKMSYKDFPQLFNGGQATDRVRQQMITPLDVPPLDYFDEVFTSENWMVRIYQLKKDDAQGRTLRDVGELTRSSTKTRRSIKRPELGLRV


Columns and labels:
[1] = molecular target: C-terminal domain of Stt3p (residues 466-718), N-terminal His6-tagged (Saccharomyces cerevisiae) (UniProt P39007); assay: NMR titration
[2] = molecular target: T1, C-terminal domain of Stt3p (residues …); assay: saturation transfer difference

| Kd [1] [mM] | binding result [2] | Molecule |
| --- | --- | --- |
| 9.97 | – | substrate peptide Asn-Asp-Thr-NH2 |
| – | binds | YNSTSC-NH2 [six-residue acceptor substrate peptide Tyr-Asn-Ser-Thr-Ser-Cys-Am] |
